Results on one substance are retold here after article doi:10.1101/2023.03.15.532784.

The assay concerns the target Homo sapiens full-length TRPV4 (hTRPV4) with C-terminal FLAG-tag and 10xHis-tag (human) (UniProt Q9HBA0). Nature of the assay: cryo-EM structure.
UniProt Q9HBA0, sequence (Q9HBA0 whole entry): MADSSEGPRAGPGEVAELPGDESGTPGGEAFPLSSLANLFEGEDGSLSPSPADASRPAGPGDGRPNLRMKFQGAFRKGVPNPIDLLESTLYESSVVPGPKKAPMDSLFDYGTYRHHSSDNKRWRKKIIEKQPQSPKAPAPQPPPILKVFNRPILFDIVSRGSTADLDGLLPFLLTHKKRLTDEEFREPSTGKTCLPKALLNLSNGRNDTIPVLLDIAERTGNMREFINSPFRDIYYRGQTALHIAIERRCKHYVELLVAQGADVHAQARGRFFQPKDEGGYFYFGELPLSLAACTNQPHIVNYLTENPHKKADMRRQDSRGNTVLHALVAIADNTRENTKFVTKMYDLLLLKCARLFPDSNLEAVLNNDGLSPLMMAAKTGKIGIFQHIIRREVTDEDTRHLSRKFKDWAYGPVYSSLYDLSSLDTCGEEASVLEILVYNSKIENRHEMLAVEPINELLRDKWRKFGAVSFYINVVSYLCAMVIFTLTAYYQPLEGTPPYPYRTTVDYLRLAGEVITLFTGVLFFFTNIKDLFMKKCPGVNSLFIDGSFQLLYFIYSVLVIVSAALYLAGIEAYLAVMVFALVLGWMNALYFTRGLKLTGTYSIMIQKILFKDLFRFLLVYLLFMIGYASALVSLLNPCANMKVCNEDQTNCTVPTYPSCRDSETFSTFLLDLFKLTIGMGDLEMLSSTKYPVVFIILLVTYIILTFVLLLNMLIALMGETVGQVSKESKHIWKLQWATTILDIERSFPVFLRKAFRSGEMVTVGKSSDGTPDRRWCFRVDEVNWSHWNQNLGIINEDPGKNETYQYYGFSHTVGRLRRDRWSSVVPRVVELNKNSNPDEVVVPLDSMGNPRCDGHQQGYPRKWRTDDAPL

Substance “endogenous RhoA copurified with overexpressed TRPV4 (from UniProt P61586 1-193) (natural protein)” registered a stoichiometry N (RhoA per TRPV4 subunit) of 1.
